Test results: patent US20150299281A1 (ZEALAND PHARMA A S, published 2015)
Numbered stars: 1 amine (or outer) side, 2 acyl side, 3 side chain; on linkers, the order of the positions; unused ones are H or OH. Square brackets hold non-standard residues; d marks the D form. Side chains are listed from the residue outwards. * marks the point of attachment. γGlu = O=C(O)[C@H](CCC(=O)[*:2])N[*:1]; Palmitoyl = CCCCCCCCCCCCCCCC(=O)*; Aib = CC(C)(N)C(=O)O

Legend:
human GLP-1 receptor = human GLP-1 receptor (human, UniProt P43220 24-463); assay: cell-based or functional assay
human GIP receptor = target: T1, human GIP receptor (human, UniProt P48546 22-466); assay: cell-based or functional assay
T1 sequence (looked up): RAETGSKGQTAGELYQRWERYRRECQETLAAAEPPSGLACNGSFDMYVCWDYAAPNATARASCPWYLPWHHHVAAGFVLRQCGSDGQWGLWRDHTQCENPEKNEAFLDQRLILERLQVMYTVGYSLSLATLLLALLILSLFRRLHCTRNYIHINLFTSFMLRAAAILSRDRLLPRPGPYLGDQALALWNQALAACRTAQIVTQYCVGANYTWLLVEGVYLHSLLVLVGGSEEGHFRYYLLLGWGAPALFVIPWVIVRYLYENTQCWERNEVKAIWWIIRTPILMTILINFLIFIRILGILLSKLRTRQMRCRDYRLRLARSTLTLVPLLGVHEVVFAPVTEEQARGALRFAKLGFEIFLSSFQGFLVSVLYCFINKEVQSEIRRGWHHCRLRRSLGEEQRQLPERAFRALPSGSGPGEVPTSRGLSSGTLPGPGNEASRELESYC

B1: Compound 52 (peptide)
peptide: H-Y[Aib]EGTFTSDYSIYLDEK([γGlu-Palmitoyl])AAKDFVEWLLSA-NH2
SMILES: CCCCCCCCCCCCCCCC(=O)N[C@@H](CCC(=O)NCCCC[C@H](NC(=O)[C@H](CCC(=O)O)NC(=O)[C@H](CC(=O)O)NC(=O)[C@H](CC(C)C)NC(=O)[C@H](Cc1ccc(O)cc1)NC(=O)[C@@H](NC(=O)[C@H](CO)NC(=O)[C@H](Cc1ccc(O)cc1)NC(=O)[C@H](CC(=O)O)NC(=O)[C@H](CO)NC(=O)[C@@H](NC(=O)[C@H](Cc1ccccc1)NC(=O)[C@@H](NC(=O)CNC(=O)[C@H](CCC(=O)O)NC(=O)C(C)(C)NC(=O)[C@@H](N)Cc1ccc(O)cc1)[C@@H](C)O)[C@@H](C)O)[C@@H](C)CC)C(=O)N[C@@H](C)C(=O)N[C@@H](C)C(=O)N[C@@H](CCCCN)C(=O)N[C@@H](CC(=O)O)C(=O)N[C@@H](Cc1ccccc1)C(=O)N[C@H](C(=O)N[C@@H](CCC(=O)O)C(=O)N[C@@H](Cc1c[nH]c2ccccc12)C(=O)N[C@@H](CC(C)C)C(=O)N[C@@H](CC(C)C)C(=O)N[C@@H](CO)C(=O)N[C@@H](C)C(N)=O)C(C)C)C(=O)O
Human GLP-1 receptor
  EC50, cAMP induction in HEK293 cells expressing human GLP-1 R: 0.18 nM
Human GIP receptor
  EC50, cAMP induction in HEK293 cells expressing human GIP R: 0.087 nM

B2: Compound 53 (peptide)
peptide: H-Y[Aib]EGTFTSDYSIYLDSK([γGlu-Palmitoyl])AAHDFVEWLLSAGPSSGAPPPS-NH2
SMILES: CCCCCCCCCCCCCCCC(=O)N[C@@H](CCC(=O)NCCCC[C@H](NC(=O)[C@H](CO)NC(=O)[C@H](CC(=O)O)NC(=O)[C@H](CC(C)C)NC(=O)[C@H](Cc1ccc(O)cc1)NC(=O)[C@@H](NC(=O)[C@H](CO)NC(=O)[C@H](Cc1ccc(O)cc1)NC(=O)[C@H](CC(=O)O)NC(=O)[C@H](CO)NC(=O)[C@@H](NC(=O)[C@H](Cc1ccccc1)NC(=O)[C@@H](NC(=O)CNC(=O)[C@H](CCC(=O)O)NC(=O)C(C)(C)NC(=O)[C@@H](N)Cc1ccc(O)cc1)[C@@H](C)O)[C@@H](C)O)[C@@H](C)CC)C(=O)N[C@@H](C)C(=O)N[C@@H](C)C(=O)N[C@@H](Cc1c[nH]cn1)C(=O)N[C@@H](CC(=O)O)C(=O)N[C@@H](Cc1ccccc1)C(=O)N[C@H](C(=O)N[C@@H](CCC(=O)O)C(=O)N[C@@H](Cc1c[nH]c2ccccc12)C(=O)N[C@@H](CC(C)C)C(=O)N[C@@H](CC(C)C)C(=O)N[C@@H](CO)C(=O)N[C@@H](C)C(=O)NCC(=O)N1CCC[C@H]1C(=O)N[C@@H](CO)C(=O)N[C@@H](CO)C(=O)NCC(=O)N[C@@H](C)C(=O)N1CCC[C@H]1C(=O)N1CCC[C@H]1C(=O)N1CCC[C@H]1C(=O)N[C@@H](CO)C(N)=O)C(C)C)C(=O)O
Human GLP-1 receptor
  EC50, cAMP induction in HEK293 cells expressing human GLP-1 R: 0.092 nM
Human GIP receptor
  EC50, cAMP induction in HEK293 cells expressing human GIP R: 0.062 nM

B3: Compound 5 (peptide)
peptide: H-Y[Aib]EGTFTSDYSIYLDKKAQRAFVNWLLA[Aib]K-NH2
SMILES: CC[C@H](C)[C@H](NC(=O)[C@H](CO)NC(=O)[C@H](Cc1ccc(O)cc1)NC(=O)[C@H](CC(=O)O)NC(=O)[C@H](CO)NC(=O)[C@@H](NC(=O)[C@H](Cc1ccccc1)NC(=O)[C@@H](NC(=O)CNC(=O)[C@H](CCC(=O)O)NC(=O)C(C)(C)NC(=O)[C@@H](N)Cc1ccc(O)cc1)[C@@H](C)O)[C@@H](C)O)C(=O)N[C@@H](Cc1ccc(O)cc1)C(=O)N[C@@H](CC(C)C)C(=O)N[C@@H](CC(=O)O)C(=O)N[C@@H](CCCCN)C(=O)N[C@@H](CCCCN)C(=O)N[C@@H](C)C(=O)N[C@@H](CCC(N)=O)C(=O)N[C@@H](CCCNC(=N)N)C(=O)N[C@@H](C)C(=O)N[C@@H](Cc1ccccc1)C(=O)N[C@H](C(=O)N[C@@H](CC(N)=O)C(=O)N[C@@H](Cc1c[nH]c2ccccc12)C(=O)N[C@@H](CC(C)C)C(=O)N[C@@H](CC(C)C)C(=O)N[C@@H](C)C(=O)NC(C)(C)C(=O)N[C@@H](CCCCN)C(N)=O)C(C)C
Human GLP-1 receptor
  EC50, cAMP induction in HEK293 cells expressing human GLP-1 R: 0.023 nM
Human GIP receptor
  EC50, cAMP induction in HEK293 cells expressing human GIP R: 0.031 nM

## YAEGTFTSDYSIALDKKAQRAFVNWLVAAKPSSGAPPPS (Aib at 2 and 29; K(hexadecanoyl-isoGlu) at 17; C-terminal amide) [Compound 36]
Human GLP-1 receptor
  EC50, cAMP induction in HEK293 cells expressing human GLP-1 R: 0.015 nM
